Measured values taken from patent US20200199241A1 (Chugai, published 2020).
Changes are numbered by the printed parent chain. Names may count otherwise.

B1: IgG1-F405 (antibody)
heavy: QVQLQESGPGLVKPSETLSLTCAVSGHSISHDHAWSWVRQPPGEGLEWIGFISYSGITNYNPSLQGRVTISRDNSKNTLYLQMNSLRAEDTAVYYCARSLARTTAMDYWGEGTLVTVSSASTKGPSVFPLAPSSKSTSGGTAALGCLVKDYFPEPVTVSWNSGALTSGVHTFPAVLQSSGLYSLSSVVTVPSSSLGTQTYICNVNHKPSNTKVDKKVEPKSCDKTHTCPPCPAPELLGGPSVFLFPPKPKDTLMISRTVEVTCVVVDVSHEDPEVKFNWYVDGVEVHNAKTKPREEQYNSTYRVVSVLQVPHQDWLNGKEYKCKVSNKALPAPIEKTISKAKGQPREPQVYTLPPSRDELTKNQVSLTCLVKGFYPSDIAVEWESNGQPENNYKTTPPVLDSDGSFFLYSKLTVDKSRWQQGNVFSCSVLHEALHYHYTQKSLSLSP
light: not shown
notes: EU numbering; copies: 2 + 2
B2: IgG1-F404 (antibody)
heavy: B1 heavy with V259A
light: not shown
notes: EU numbering; 'M928L' read as M428L; copies: 2 + 2
B3: IgG1-F391 (antibody)
heavy: B1 heavy with M254W, V259P, Q309T, V310P, P311A, L430Y
light: not shown
notes: EU numbering; copies: 2 + 2
B4: IgG1-F381 (antibody)
heavy: B1 heavy with Q309A, P311L, Q313A
light: not shown
notes: EU numbering; copies: 2 + 2
B5: IgG1-F426 (antibody)
heavy: B1 heavy with P311L, L430M
light: not shown
notes: EU numbering; copies: 2 + 2
B6: IgG1-F400 (antibody)
heavy: B1 heavy with S241K, M254Y, V259P, D272F, N288E, Q309T, V310P, P311L, Q313A, L430I
light: not shown
notes: EU numbering; copies: 2 + 2
B7: IgG1-F447 (antibody)
heavy: B1 heavy with V259A, N288E, P311L
light: not shown
notes: EU numbering; copies: 2 + 2
B8: IgG1-F431 (antibody)
heavy: B1 heavy with M254Y, P311L, L430F
light: not shown
notes: EU numbering; copies: 2 + 2
B9: IgG1-F433 (antibody)
heavy: B1 heavy with P311L, Q313A, N327G, L430M
light: not shown
notes: EU numbering; copies: 2 + 2
B10: IgG1-F395 (antibody)
heavy: B1 heavy with S241K, M254Y, T258E, V259P, Q309T, V310P, P311L, L430M
light: not shown
notes: EU numbering; copies: 2 + 2
B11: IgG1-F401 (antibody)
heavy: B1 heavy with S241K, M254Y, V259P, D272F, N288E, Q309T, V310P, P311L, P389E, L430I
light: not shown
notes: EU numbering; 'N431Y' as printed, probably N434Y; copies: 2 + 2
B12: IgG1-F436 (antibody)
heavy: B1 heavy with V259A, P311L, L430V
light: not shown
notes: EU numbering; copies: 2 + 2
B13: IgG1-F437 (antibody)
heavy: B1 heavy with V259A, P311L, L430M
light: not shown
notes: EU numbering; copies: 2 + 2
B14: IgG1-F407 (antibody)
heavy: B1 heavy with P311R
light: not shown
notes: EU numbering; copies: 2 + 2
B15: IgG1-F451 (antibody)
heavy: B1 heavy with V259S, Q309A, P311L
light: not shown
notes: EU numbering; copies: 2 + 2
B16: IgG1-F390 (antibody)
heavy: B1 heavy with M254W, V259P, Q309T, V310P, P311D, L430Y
light: not shown
notes: EU numbering; copies: 2 + 2
B17: IgG1-F439 (antibody)
heavy: B1 heavy with V259A, P311L, L430F
light: not shown
notes: EU numbering; copies: 2 + 2
B18: IgG1-F412 (antibody)
heavy: B1 heavy with Q309G, P311L
light: not shown
notes: EU numbering; copies: 2 + 2
B19: IgG1-F427 (antibody)
heavy: B1 heavy with M254Y, P311L, L430V
light: not shown
notes: EU numbering; copies: 2 + 2
B20: IgG1-F392 (antibody)
heavy: B1 heavy with S241K, M254Y, V259P, N288E, Q309T, V310P, P311L, L430I
light: not shown
notes: EU numbering; copies: 2 + 2
B21: IgG1-F418 (antibody)
heavy: B1 heavy with S241K, M254Y, V259P, Q309P, P311L, N327G, L430Y
light: not shown
notes: EU numbering; copies: 2 + 2
B22: IgG1-F422 (antibody)
heavy: B1 heavy with M254Y, V259P, Q309A, P311L, Q313H, E384A, L430M
light: not shown
notes: EU numbering; copies: 2 + 2
B23: IgG1-F415 (antibody)
heavy: B1 heavy with N288E, Q309A, P311L
light: not shown
notes: EU numbering; copies: 2 + 2
B24: IgG1-F389 (antibody)
heavy: B1 heavy with M254W, V259P, Q309T, V310P, P311E, L430Y
light: not shown
notes: EU numbering; copies: 2 + 2
B25: IgG1-F444 (antibody)
heavy: B1 heavy with V259A, Q309A, P311L, Q313A
light: not shown
notes: EU numbering; copies: 2 + 2
B26: IgG1-F416 (antibody)
heavy: B1 heavy with Q309A, P311L, P389E
light: not shown
notes: EU numbering; copies: 2 + 2
B27: IgG1-F443 (antibody)
heavy: B1 heavy with V259A, P311L, Q313A
light: not shown
notes: EU numbering; copies: 2 + 2
B28: IgG1-F397 (antibody)
heavy: B1 heavy with S241K, M254Y, V259P, D272F, P311L, Q313A, P389E, L430I
light: not shown
notes: EU numbering; 'T370Q' as printed, probably T307Q; copies: 2 + 2
B29: IgG1-F399 (antibody)
heavy: B1 heavy with S241K, M254Y, V259P, D272F, N288E, V310P, P311L, L430I
light: not shown
notes: EU numbering; copies: 2 + 2
B30: IgG1-F409 (antibody)
heavy: B1 heavy with Q309T, P311L, P389E
light: not shown
notes: EU numbering; copies: 2 + 2

target: T1, human FcRn (soluble human FcRn complexed with β2-microglobulin) (human, UniProt P61769 21-119, limits assumed); experiment: SPR, pH 7.0;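 also: antibodies captured on a Protein L sensor chip with human FcRn injected as analyte, KD calculated from fitted association and dissociation rate constants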
T1 construct: also called hFcRn

Row | Kd | Binder
1 | 170 nM | B1
2 | 94 nM | B2
3 | 36 nM | B3
4 | 110 nM | B4
5 | 84 nM | B5
6 | 6.1 nM | B6
7 | 14 nM | B7
8 | 65 nM | B8
9 | 60 nM | B9
10 | 24 nM | B10
11 | 6.9 nM | B11
12 | 250 nM | B12
13 | 57 nM | B13
14 | 160 nM | B14
15 | 100 nM | B15
16 | 68 nM | B16
17 | 40 nM | B17
18 | 88 nM | B18
19 | 110 nM | B19
20 | 6.9 nM | B20
21 | 620 nM | B21
22 | 180 nM | B22
23 | 56 nM | B23
24 | 17 nM | B24
25 | 140 nM | B25
26 | 94 nM | B26
27 | 55 nM | B27
28 | 45 nM | B28
29 | 6.5 nM | B29
30 | 200 nM | B30
